21 sequences from a protein production outcome set (Wang et al. 2014) can be followed below.

The series can be described thus: label from the status in PepcDB records.

With “MKLDDLNLFRQVVENGSYTAASRKTLIPVATITRRIQALEDSLDIRLLNRHARKLSLTEAGQKFYDECAPILATLVNTSEYLGEECRGAAGKLKIAAPSNLTKRMIQPILNKFMLLYPDISINLTMSNQPEQLDPTDWDIIFRVGKQRDSSLIARQIGSLEDILVASPSYLEKNSEPTHAQELHKHSLLKGNPLMRWRLTNKDGESVTITDAGRFEASELNVIRMACSNGLGITLMPDIMISQYLEEGSLIRVLSDWSANPRDIYMIYNYKDHQPEKVRLFIDFVSNHIPD”, the protein production result was “failed”.

As to “MKLELGNIFIKNVEFGEKTEVKDGVLYISSEEIEKIVLEDERIVSVNVELARPGESIRIAPVKDVIEPRVKIGDESKIFPGIINKVKTVGSGRTHVLLGACVVTCGNIVGFQEGVIDMSGPTAKYTPFSKTNNICIVIKAKDGIDTHDYEEAARIAGLKIGAYVGEAGREVEPDEVIVYETKPLLKQVKEYPDLPTVAYVHMLQSQGLLHDTYYYGVDAKQIVPTFMYPTEIMDGAIISGNCVAPCDKVTTFHHLNNPVIHDLYKRHGKDLNFIGVILTNENVFLVDKERSSDMVAKLIEFLGVDGVLVTEEGYGNPDTDLMMNCRKCSEVGANVVLITDEFPGKDGKSQSIADATKEADAVVSCGQGNLVVHFPAMEKIIGTLDYVEMMIGGYKGCLNEDGSMDAELQIIIASTIANGYNHLTARYY”, the protein production result is “failed”. “MKLERKNSGIIFLIFGVVFVLNALNPVMELLYIKAKGEIAEAKIVAYDFIQRSSRSGRGSSYKYIPIIEFFDGKEIVQVPVTMNSLNEELDIIGLDVKVSYLKNTPSKVIIDDKLFWLYEISNSLVVVGSFLLMVMLSQMSVETYRGRELTFNVPTKNKIIFLISGLPGVIGTFLSFYYGFITLKYNGLGFTSGTLILSLLIIGVYLLGIVNFLKIKNNYWG”: the protein production entry was “failed”. Consider “MKLIAVLNLLNQLSNKNSLEEYLNGVIDFLSGWTGCENIGIRVLREAGLAPYVVHRGFDKDFIASESCISVEGDECVCLRVLKQQFKSEDQDHISAAGTYYAPNFYRYVEELREDQLLNFRGLCAHKQFKSLAVIPLLHQGKVVGAIHIADIKDGVFSEEDIHFIETIRPLVAEAIYRHNLEKALEHHHHHH”, for which the protein production result is recorded as “failed”. “MKLIVVTTPTFFVEEDKIITALFEEGLDILHLRKPETPAMYSERLLTLIPEKYHRRIVTHEHFYLKEEFNLMGIHLNARNPSEPHDYAGHVSCSCHSVEEVKNRKHFYDYVFMSPIYDSISKVNYYSTYTAEELREAQKAKIIDSKVMALGGINEDNLLEIKDFGFGGAVVLGDLWNKFDACLDQNYLAVIEHFKKLKKLADLEHHHHHH”: the protein production entry is “not failed”. In the case of “MKLKRKILALLMAALLAVSLAGCGQTSQAPANPPAAPEAGTPTERTVTDMAGRTVTLPAEVKTVGTFGSIGVLNAFVETLSAGERLANEGSPSFVKSPTWEKYQYQFTPHIKNLKPFQGADSELLMENILAAKPDVCLTMSADLTEQLEKQGLNVVQLSWTKTEDVKECITLLGEVLNQQEVAADYLKYFDDMLAKAADLTKDIKDADKKTVVYGNVSKFSQPHVIAEWWIDKAGGISVTSEAMTKANKESLTYTLEDLLKWNPDVMFVASAAEKKEVLADARLGEITAVKNGAIYIVPRIAHVWGNRTTEQPLTIMWAMNKLYPEIVTDSQLAEDISYFYSHFFKYDFNADQLKEIMGK”, the protein production entry is recorded as “failed”.

With “MKLKTEPLSNEKNFSKVKKALSSIPQVRDQKFEEETNTVTIKVVCCSPEKVMDKLCSKGRGAIKLIETIDPAKHVAQKPKEPEKPKEAEKPKEPEKPKPAAAPAQGDPSSQRVTHGYNPPPMMGHPVPWSDGPNYGWSRPNGYDERPIYNSYGGWQPPPSQYGGRSHYEEEQPSCSIM”, the protein production entry was “failed”. The entry for “MKLLLIGYGNVGKAFRRLLHEKKDNYPILQGVEIAGIITRQGLMVGDKENFSPDKQLTVLEAIDYINPDVIVDMSVPNYKDGEPSVSAYIKALSRKIHVITVNKAPLALKFREIFEVAEKTGAKIGFQGTVMSGTPSINLFRIQPVAEVSRIRGILNGTTNYILTRIYEGLSFNEALKEAKEKGYAEEDPTLDLNGFDAAAKLTILSNFIMNRSLKLGDFKFKGITEITNEEIRRAKSEGKKIKLIAYADNYVVQVSPQIIGPQDPLYYIDGVENALEIQNEIQRIIIRGPGAGPINAAYGALSDLVLLLEGCL” is “failed”; for “MKLLSQLLLFTSLTFPLSSFAALGEHPIILIHGFQAGQLQTKPNHDAVVADGKNYWQDYWLAKADDRIDWPSQERVAGKISTDYIWPKLQELSKNNTCKNGCILVTHSTGDLVARHLLDNQENW” it is “failed”; for “MKLNVKMLSVTLGLFTSHAFAHTVYENARIYTVNDQQPTASVLVVEQGKIIYVGGNDGAKQFKATAAELFDLEGKTVLPGFIESHAHPATVAVMQAGDFVYVDGAASLTQILNQLKDYLAAHPKANYLLAQGFNVASLGLPQGALPTAADLDTVSTSIPIVVYDSGMHAGWANSAALKIAHVDANTPDPISGKHYFERDNKGNPTGFMHESAMHNVVDAQQFNTVENVAEQLKPILNTYHSLGFTAITDVGDTFSTTTAAIARLNDQGKLKVYYQRGYFYDAAKSTEQNIASLKALREKYNRGNLSMNLYKLFMDGTIEMDSGAMFKPYPNGNIVEPFLSQKQINDNVAAALKAGFSVHVHAIGDKAQQSILDAFEASKNINPHLARVIAHNQVFEPQGVQKFAAMKDNLFLQTTPNWTVLNEKDETKTKIGSDAYNHQYLLGQVVREGVAVTFGSDYPANTFDAVNPFSQMYHAIKRGQPNAGYLPPTDAAMTLDQSLRAYTINGAKQLGISDITGSLEKGKNADFIIVDTDIGSVDLEKLKNTNVLATYFKGEKVY” it is “failed”.

On to “MKLPPGFSISVWANVPDARTMTLGDKGTVFVGSKSAGNVYAITENAGKRQIRIIASKLKMPNGVAFHDGALYVSSVNRILRFDNIENTLDQPLPPRIITADYPKETYHGWRFIAFGPDGWLYVPVGSSCNVCETDLEHYALISRIRPDGSNYEVFAKGVRNTEGFDWHPVTKALWFTDISREWMGDNLPPDELNHASNQGLDFGFPYCHGKEVSDPKLGAKRDCNKFIPPAVELDPHVAPMGMRFYTGTMFPAEYHNGIFIAEHGSWNRSTKIGYRLEWVQLEVNEVARKEIFAEGWLQENEAWGRPVDVLVMPDGALLVSDDMAGVVYRISYDQPLEHHHHHH”, for which the protein production entry is on record as “not failed”. As for “MKLQLYVLRTVATRILGAALILMSVLQILDLLDVTSDILDRGLGMAGVGYYAALRLPRLFEQVAPIAVLAGGLFAFSQLARESAIVAMRASGISGYRIVGMAVPAAVAVMLLDALCGQVLAPRADPTLADWWRNTTPVAERKEPVPRTFRAGADLVIGANASADGRTITGVTIFRRDSKGILVEKVEAPAARYDGKAWTLEQPKTTRFAGDLSQASTAAATSWPTALRPQDVQGLFGDDSMPTAASARRALENGGSDRPESFYATHLQAAFASPFVSLVMLLLSAPVALANFRSGQGAVLLTGGLAAGLMFLVANGMLTALGESGALTPFLAVWAAPAIFGALAVRTFLALEG”, the protein production entry is on record as “failed”. For the sequence “MKLQVLPLSQEAFSAYGDVIETQQRDFFHINNGLVERYHDLALVEILEQDRTLISINRAQPANLPLTIHELERHPLGTQAFIPMKGEVFVVVVALGDDKPDLSTLRAFITNGEQGVNYHRNVWHHPLFAWQRVTDFLTIDRGGSDNCDVESIPEQELCFA”, the protein production entry is given as “not failed”. With “MKLRLRHHETRETLKLELADADTLHDLRRRINPTVPSSVHLSLNRKDELITPSPEDTLRSLGLISGDLIYFSLEAGESSNWKLRDSETVASQSESNQTSVHDSIGFAEVDVVPDQAKSNPNTSVEDPEGDISGMEGPEPMDVEQLDMELAAAGSKRLSEPFFLKNILLEKSGDTSELTTLALSVHAVMLESGFVLLNHGSDKFNFSKELLTVSLRYTLPELIKSKDTNTIESVSVKFQNLGPVVVVYGTVGGSSGRVHMNLDKRRFVPVIDLVMDTSTSDEEGSSSIYREVFMFWRMVKDRLVIPLLIGICDKAGLEPPPCLMRLPTELKLKILELLPGVSIGNMACVCTEMRYLASDNDLWKQKCLEEVNNFVVTEAGDSVNWKARFATFWRQKQLAAASDTFWRQNQLGRRNISTGRSGIRFPRIIGDPPFTWFNGDRMHGSIGIHPGQSARGLGRRTWGQLFTPRCNLGGLN” the entry was “failed”; with “MKLSATIAIILLNWNGWRDTVDCVESCRKLDYPNFRIVIVDNGSTDGSEAILRERFPDVELIQTGANLGFAGGNNAGIRHALVRGADYVWLLNNDTVVEPGALGALVRVAESDPRVGMVGSKIVYFDDPWLLWFAGAVIDPERPHRPFHRGLHERDTGQYDRVAETGYVTGCSLLARREMMAEVGMLDDDLFLYFEDADWSARAARAGWKLLYVPDSVVRHKESVSSGGAASPRLVYYTARNRLYFVRRNFPAKLAAALCYDLFEHVLVNVKKGRFPLAVAGCRGIRDFLAGKIGPMPLEHHHHHH”, “not failed”. The entry for “MKLSCVIVSHNMKNYIGRCIDSVRTALADIRSLVGEAEIIVVDRGSTDGTANAARTAYADVTIVDVPFDAGWATAANKGACAATGETLLFVSPEVELLSGGLPRLLEHLETNPACAIAGGAVVSTSGALLHGPARFPGLLGKLAALTGLGSRFPRTMLDWTRYGGRNLDLPLEVDSVSFDYAVVKAAAFCKLGRFDARFHTAFADTDLCRRASRTMLPRPTVAFVPQARARAQDNFVLRDEVQAFDLHGTAVVRGRVRCEMLYVWKNYCILTSLANTTLELVGQACRYAMGLLPVIGCDKTARHSAAVLKETAQAALDTQLGSQYPTTPWLEHHHHHH” is “failed”; for “MKLSLRYVLNQFLSTNLSIFFVLFAIVSMVFFIQLAKLTSSIEISFLDLLKLYGFMLPRILIFTLPISFFISLTLALFRLSKENESIVLFTLGFSPMILAKFFLKIASLISAFMLVVALVMIPIVFELQDNFVNYKSTQVKFNYKTGEFGQKFLDWMIFIEKQDSDKYENIIMYRPKHKADDKEQLIIAKEAHVQRKDDSFAFSLNQGKMYNFEQGQSIFSGEFDTLVVNTQFNTDNLQTKKFYEYWNDLNENPQRAREFVIYTTIALFPLASTLFALCFGLVTYRYEKGYVYLGMFGVIAIYFGLLSSFSQPPILACLGIFSLSLFVSAYCFKKMILSRY” it is “failed”. With “MKLSNKTQALHDLIAPAVQACDVNLWGIEFIPQGKRSLLRIFIDKPVDETAEPVLNEDGETELGRGIGVQDCVRVTQQVGAILDVHDPISGEYALEVSSPGWDRPFFQLEQMSAYIGQQVALRLISAVENRRKFQAKLLLVDLENEMIQVEVDGKHVLEIDSHNIDKANLIYQD” the entry was “failed”; with “MKLTDRLLKIASLVSDGKKIADIGTDHGYIPVYLLKEGKVPFAVLADVNKGPLDNAHKEVIQNNLLDKVDLRLGSGIEILEIGEVEEVIIAGMGGILISELLEAKKEVAHNVEKLILQPMQAQEELRYYLLNNGYEILEEVLVREDFRIYEIIVA”, “failed”. As to “MKLTGQAIDGFLRKPDPKIRCVLVYGPDEGLVRERLEQLARTVVADPKDPFRITDLSGDDLRADPARLADEAAALAFGGGRRLVRLRQMTDQHAPRLKAFVEAPVGEALVLVQGGDLTARSALRKLFEGASAAAALPCYADEGRSLETLVRATLAEARLAAAPEVIDYLVANLGGDRGVSRSELAKLVTYCGKATSVSLDDALACVGDSAQIGLDMLTNAVAEGDSATALRALDRLGQEGMATVALLRGLTRHFTRLHLVAGLIAGGTSVDQALAALKPPVMFKLAPRFRSQVQRWSAERLAQALDLLLDAEIDAKSSGLPERALVERLLLRLARGAKTASRLEHHHHHH”, the protein production entry is listed as “failed”. The entry for “MKLVFKWHDAPLSFMEGVFARGDRRLGAALRRAWELGCRFDGWGDRFDEAAWRTAFEETGIDPAFYHRRREPDEVLPWGHLDFGVTREFLLRELELSRQGAATEDLEHHHHHH” is “failed”.
